# Laboratory results reported in IntAct's records for PubMed 31515488.
# B1: Ligand of Numb protein X 2 (Homo sapiens), Q8N448 (parent)
# chain: MGTTSDEMVSVEQTSSSSLNPLCFECGQQHWTRENHLYNYQNEVDDDLVCHICLQPLLQPLDTPCGHTFCYKCLRNFLQEKDFCPLDRKRLHFKLCKKSSILVHKLLDKLLVLCPFSSVCKDVMQRCDLEAHLKNRCPGASHRRVALERRKTSRTQAEIENENGPTLLDPAGTLSPEADCLGTGAVPVERHLTSASLSTWSEEPGLDNPAFEESAGADTTQQPLSLPEGEITTIEIHRSNPYIQLGISIVGGNETPLINIVIQEVYRDGVIARDGRLLAGDQILQVNNYNISNVSHNYARAVLSQPCNTLHLTVLRERRFGNRAHNHSDSNSPREEIFQVALHKRDSGEQLGIKLVRRTDEPGVFILDLLEGGLAAQDGRLSSNDRVLAINGHDLKYGTPELAAQIIQASGERVNLTIARPGKPQPGNTIREAGNHSSSSQHHTPPPYYSRPSSHKDLTQCVTCQEKHITVKKEPHESLGMTVAGGRGSKSGELPIFVTSVPPHGCLARDGRIKRGDVLLNINGIDLTNLSHSEAVAMLKASAASPAVALKALEVQIVEEATQNAEEQPSTFSENEYDASWSPSWVMWLGLPSTLHSCHDIVLRRSYLGSWGFSIVGGYEENHTNQPFFIKTIVLGTPAYYDGRLKCGDMIVAVNGLSTVGMSHSALVPMLKEQRNKVTLTVICWPGSLV
# B2: 5'-AMP-activated protein kinase subunit beta-2 (Homo sapiens), O43741 (parent)
# chain: MGNTTSDRVSGERHGAKAARSEGAGGHAPGKEHKIMVGSTDDPSVFSLPDSKLPGDKEFVSWQQDLEDSVKPTQQARPTVIRWSEGGKEVFISGSFNNWSTKIPLIKSHNDFVAILDLPEGEHQYKFFVDGQWVHDPSEPVVTSQLGTINNLIHVKKSDFEVFDALKLDSMESSETSCRDLSSSPPGPYGQEMYAFRSEERFKSPPILPPHLLQVILNKDTNISCDPALLPEPNHVMLNHLYALSIKDSVMVLSATHRYKKKYVTTLLYKPI
# B3: Tyrosine-protein phosphatase non-receptor type 9 (Homo sapiens), P43378 (parent)
# chain: MEPATAPRPDMAPELTPEEEQATKQFLEEINKWTVQYNVSPLSWNVAVKFLMARKFDVLRAIELFHSYRETRRKEGIVKLKPHEEPLRSEILSGKFTILNVRDPTGASIALFTARLHHPHKSVQHVVLQALFYLLDRAVDSFETQRNGLVFIYDMCGSNYANFELDLGKKVLNLLKGAFPARLKKVLIVGAPIWFRVPYSIISLLLKDKVRERIQILKTSEVTQHLPRECLPENLGGYVKIDLATWNFQFLPQVNGHPDPFDEIILFSLPPALDWDSVHVPGPHAMTIQELVDYVNARQKQGIYEEYEDIRRENPVGTFHCSMSPGNLEKNRYGDVPCLDQTRVKLTKRSGHTQTDYINASFMDGYKQKNAYIGTQGPLENTYRDFWLMVWEQKVLVIVMTTRFEEGGRRKCGQYWPLEKDSRIRFGFLTVTNLGVENMNHYKKTTLEIHNTEERQKRQVTHFQFLSWPDYGVPSSAASLIDFLRVVRNQQSLAVSNMGARSKGQCPEPPIVVHCSAGIGRTGTFCSLDICLAQLEELGTLNVFQTVSRMRTQRAFSIQTPEQYYFCYKAILEFAEKEGMVSSGQNLLAVESQ
# Variants of: B1
# Conditions: with tbb5_human TUBB
row,Variant,effect of a mutation on the interaction
1,T183I,with no effect
2,V145I,with no effect

# Variants of: B1
# Conditions: with mk09_human MAPK9, P45984
row,Variant,effect of a mutation on the interaction
1,T183I,with no effect
2,V145I,with no effect
3,S141A,with no effect
4,Y266C,with no effect

# Variants of: B1
# Conditions: with at2l2_human PHYKPL
row,Variant,effect of a mutation on the interaction
1,T183I,with no effect
2,V145I,with no effect

# Variants of: B1
# Conditions: with ip6k2_human IP6K2, Q9UHH9
row,Variant,effect of a mutation on the interaction
1,T183I,with no effect
2,V145I,with no effect

# Variants of: B1
# Conditions: with optn_human OPTN
row,Variant,effect of a mutation on the interaction
1,T183I,with no effect
2,V145I,with no effect
3,S141A,with no effect
4,Y266C,disrupting interaction strength

# Variants of: B1
# Conditions: with lrc8e_human LRRC8E
row,Variant,effect of a mutation on the interaction
1,S198P,with no effect

# Variants of: B1
# Conditions: with atpb_human ATP5F1B
row,Variant,effect of a mutation on the interaction
1,S198P,with no effect

# Variants of: B1
# Conditions: with ptcd3_human PTCD3, Q96EY7
row,Variant,effect of a mutation on the interaction
1,S198P,with no effect

# Variants of: B2
# Conditions: with oxda_human DAO
row,Variant,effect of a mutation on the interaction
1,G55E,with no effect

# Variants of: B2
# Conditions: with mdfi_human MDFI
row,Variant,effect of a mutation on the interaction
1,G55E,with no effect

# Variants of: B2
# Conditions: with crx_human CRX
row,Variant,effect of a mutation on the interaction
1,G55E,with no effect

# Variants of: B2
# Conditions: with cdx4_human CDX4, O14627
row,Variant,effect of a mutation on the interaction
1,G55E,with no effect

# Variants of: B3
# Conditions: with mal2_human MAL2, Q969L2
row,Variant,effect of a mutation on the interaction
1,R72Q,disrupting interaction strength

# Variants of: B3
# Conditions: with rtn3_human RTN3, O95197
row,Variant,effect of a mutation on the interaction
1,R72Q,with no effect

# Variants of: B3
# Conditions: with atrap_human AGTRAP
row,Variant,effect of a mutation on the interaction
1,R72Q,with no effect
